The assay addresses T1, BSA (bovine, UniProt P02769).
T1 construct: also called bovine serum albumin
Put plainly: ELISA, BSA as control antigen; detection with anti-human IgG HRP. Background: An ELISA detects its analyte on a solid surface through an enzyme-linked reagent.

This is an account of results in patent US20140072577A1 (AstraZeneca / MedImmune, published 2014).

T1 sequence (P02769 25-607 limits assumed): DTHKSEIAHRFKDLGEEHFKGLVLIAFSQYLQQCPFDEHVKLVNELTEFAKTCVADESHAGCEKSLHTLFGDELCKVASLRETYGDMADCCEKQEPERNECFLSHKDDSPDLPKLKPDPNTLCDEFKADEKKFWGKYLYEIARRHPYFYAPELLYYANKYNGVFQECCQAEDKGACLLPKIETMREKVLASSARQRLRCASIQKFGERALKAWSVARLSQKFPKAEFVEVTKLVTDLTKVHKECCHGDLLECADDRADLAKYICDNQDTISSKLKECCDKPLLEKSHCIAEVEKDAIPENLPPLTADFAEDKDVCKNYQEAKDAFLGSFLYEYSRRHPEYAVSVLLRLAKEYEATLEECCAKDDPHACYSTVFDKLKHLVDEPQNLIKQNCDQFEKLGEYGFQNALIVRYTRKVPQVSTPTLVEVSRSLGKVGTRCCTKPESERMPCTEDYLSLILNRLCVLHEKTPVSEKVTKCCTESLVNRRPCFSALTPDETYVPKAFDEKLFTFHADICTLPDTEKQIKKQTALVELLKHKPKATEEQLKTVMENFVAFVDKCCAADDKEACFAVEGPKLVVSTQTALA

B1: LC10 YTE (antibody corresponding to mAb LC10 containing an Fc variant (antibody, V domains shown)
VH: EVQLVESGGGLVQPGGSLRLSCAASGFTFSSHDMHWVRQATGKGLEWVSGIGTAGDTYYPDSVKGRFTISRENAKNSLYLQMNSLRAGDTAVYYCARDRYSPTGHYYGMDVWGQGTTVTVSS
VL: DIQMTQSPSTLSASVGDRVTITCRASQSISSWLAWYQQKPGKAPKLLIYKASSLESGVPSRFSGSGSGTEFTLTISSLQPDDFATYYCKQYADYWTFGQGTKVEIKR
notes: also called LC10-IgG1-YTE; MEDI4893
For the molecule B1, the binding result is reported as “no binding”.
